According to the supplement of paper PMC10724198:
± gives the standard deviation of the averaged measurements.

These sequences were tested on Saccharomyces cerevisiae (assay: protein stability index of tFT-peptide fusion (C-terminal peptide) (PSI (0-1 scale)); higher = more stable (slower turnover)). Details: genetic background: wild type; temperature: 30 C.
Experimental: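 Multiplexed protein stability (MPS) profiling in S. cerevisiae. Random 12-aa peptides (tFT-X12 library) are fused to the C-terminus of a sfGFP-mCherry tandem fluorescent timer, after mCherry and a GGGS linker. Cells are FACS-sorted into 8 mCherry/sfGFP bins and deep-sequenced. The protein stability index (PSI) is the read-weighted bin average, scaled from 0 (unstable) to 1 (stable). Only peptides with >10 reads are reported; cells were grown at 30 °C in SC-His with glucose.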
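Also: PSI is a weighted mean of sequencing reads over stability bins, variants kept only with over 10 reads, mCherry proximal and sfGFP distal, peptide attached via GGGS linker.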

| Sequence | protein stability index |
| --- | --- |
| WDGGPTRSGGTG | 0.711 ± 0.013 |
| PPFFFIDMGASN | 0.697 ± 0.054 |
| GGVGAFAARRFA | 0.634 ± 0.012 |
| SVAPRPPFPFAI | 0.694 ± 0.026 |
| SPSAVPPALLYS | 0.747 ± 0.2 |
| PSPLPLSPLPFS | 0.687 ± 0.04 |
| PPPRVPPPVPPL | 0.722 ± 0.047 |
| RLDDFSALPPRY | 0.781 ± 0.064 |
| GSVYFDLLCVRP | 0.729 ± 0.048 |
| GIPYALVTPPFP | 0.7724 ± 0.0077 |
| GFEIFYLVLGIP | 0.52979 ± 0.00023 |
| RLFHYPPPRHSY | 0.61 ± 0.043 |
| WGGGGLRVSCGT | 0.687 ± 0.093 |
| PSLRLPVSVPTL | 0.717 ± 0.018 |
| ALGGKDQSRSSS | 0.699 ± 0.019 |
| PSLPHLPSTSSC | 0.681 ± 0.023 |
| GYLFLGNMTRHN | 0.737 ± 0.016 |
| GGAWRGWCVGVR | 0.644 ± 0.1 |
| RVPVSQHARTRN | 0.6744 ± 0.0055 |
| CSSTCRCCAAFD | 0.641 ± 0.0086 |
| TKKKNKLRNKQE | 0.664 ± 0.048 |
| EFRCRGPWGLEE | 0.761 ± 0.17 |
| SVGCRRGMDSRV | 0.702 ± 0.04 |
| GGGRGGFRVVVG | 0.744 ± 0.042 |
| IRLLNKAACVTM | 0.742 ± 0.04 |

| Sequence | protein stability index |
| --- | --- |
| DKGTGYIVKRIT | 0.6872 ± 0.0044 |
| LLESTAHGKGIR | 0.683 ± 0.022 |
| ADQVGRAVIIAS | 0.644 ± 0.0074 |
| KQNQKKREITAG | 0.664 ± 0.055 |
| VSPAPSAILRLD | 0.6765 ± 0.0025 |
| SKPPLPTRLPRP | 0.7056 ± 0.0032 |
| QGLSFVSVSPRP | 0.795 ± 0.029 |
| LGVVCVGWLGGL | 0.664 ± 0.03 |
| PPCFPHPLPPPR | 0.744 ± 0.022 |
| ASLDTALVHITL | 0.622 ± 0.0064 |
| PPRQSHHPNPQH | 0.682 ± 0.038 |
| IENKKEKKIMIE | 0.6652 ± 0.0037 |
| CFCPWFGRVCLG | 0.5142 ± 0.0014 |
| PLRSTYPSLLLP | 0.691 ± 0.011 |
| FGGGGRGGLLWC | 0.764 ± 0.06 |
| VWVSHPWYMAFL | 0.618 ± 0.066 |
| HPPPFRSIPEPQ | 0.678 ± 0.019 |
| SKNLKQTQKKKT | 0.808 ± 0.069 |
| LLVGVGGAGGVG | 0.603 ± 0.012 |
| PPLPPPSPESVS | 0.709 ± 0.056 |
| TPEQMKIKRNVE | 0.69 ± 0.009 |
| APFRHKANEPGE | 0.706 ± 0.037 |
| GTASGGPKVSLF | 0.656 ± 0.088 |
| VAAFGGGATNGV | 0.736 ± 0.029 |
| IEWGPITTLTQT | 0.718 ± 0.02 |

| Sequence | protein stability index |
| --- | --- |
| AVSAGQASPGRA | 0.681 ± 0.061 |
| LFPCFSFPFSFL | 0.587 ± 0.055 |
| WCMMSWMSQFRP | 0.653 ± 0.015 |
| KKMSGNKLKNKN | 0.643 ± 0.013 |
| GVLHPPARPPPL | 0.654 ± 0.024 |
| GELVVRVGEWGC | 0.7051 ± 0.0027 |
| RNNKLGIRKSFL | 0.69 ± 0.035 |
| GGGVRGGVLVLG | 0.51 ± 0.03 |
| APRPSNRRPRPR | 0.629 ± 0.025 |
| HTPPPPRHPYKH | 0.741 ± 0.055 |
| GGGGVVRAWGLR | 0.738 ± 0.043 |
| ESRNEPDQRLCQ | 0.686 ± 0.013 |
| YEGVNLSWYRIR | 0.676 ± 0.045 |
| PCPLAHSLWLMF | 0.612 ± 0.056 |
| ETHHITHHQWKV | 0.683 ± 0.05 |
| SLTYSDGCTKSI | 0.742 ± 0.043 |
| PSFPLLPPPSLS | 0.6913 ± 0.0051 |
| HPSARLPENRTP | 0.677 ± 0.038 |
| WVSFVFCSLLGG | 0.588 ± 0.018 |
| SFARPSFVRPFA | 0.694 ± 0.017 |
| PPTPMRAQRHPR | 0.579 ± 0.01 |
| IFWGFSFRGWGC | 0.683 ± 0.015 |
| VHHHQTTCHRHR | 0.682 ± 0.018 |
| WPSCKVHSPSPS | 0.675 ± 0.016 |
| GVRVRAGYDVRA | 0.6619 ± 0.0033 |

| Sequence | protein stability index |
| --- | --- |
| VVSFDPLFPSPR | 0.706 ± 0.037 |
| WWPDILWLNTGW | 0.701 ± 0.035 |
| PPPPPPPPSLSP | 0.591 ± 0.047 |
| SSNVTVLGVLYC | 0.6973 ± 0.0049 |
| KEEKNEENNKKE | 0.641 ± 0.033 |
| VIMGLKYYRKCE | 0.658 ± 0.014 |
| RPLLVPVSSTPP | 0.716 ± 0.045 |
| RFPLSLRIPLPK | 0.63 ± 0.034 |
| TRNNDKQTDTIV | 0.729 ± 0.048 |
| TPTSLPGPRVLS | 0.6596 ± 0.0054 |
| FHGSIVQLTFRA | 0.603 ± 0.047 |
| WELVYLASLVQQ | 0.666 ± 0.055 |
| YPSLPQIVLATV | 0.5033 ± 0.004 |
| WVGRIRGMEGWM | 0.696 ± 0.037 |
| RILSCGCVCFVM | 0.702 ± 0.031 |
| GPHAPPPSFPAP | 0.718 ± 0.074 |
| SLRMTVFTAPLS | 0.654 ± 0.007 |
| GRGLGRVMRGRV | 0.6182 ± 0.0059 |
| LASCVTRTMAWD | 0.664 ± 0.071 |
| LSEVFLSMNVVL | 0.676 ± 0.06 |
| VGLPPVAGLVTG | 0.751 ± 0.073 |
| QVGPSPCHPFTL | 0.684 ± 0.0091 |
| PPPPPPNPLPLP | 0.68 ± 0.032 |
| PHLPPPPDPPRP | 0.676 ± 0.009 |
| STGPFFMIKGSF | 0.72 ± 0.027 |

| Sequence | protein stability index |
| --- | --- |
| FPGVRNGSRFPP | 0.637 ± 0.0067 |
| PPRPPLPPTLPP | 0.6973 ± 0.0026 |
| CPCASEYIAFTL | 0.701 ± 0.018 |
| PSGGRGSRWWGV | 0.7348 ± 0.006 |
| DGDIIVVQINKL | 0.6471 ± 0.0039 |
| DGNDSILTKLPL | 0.714 ± 0.021 |
| VPPSPPRPPPPS | 0.697 ± 0.053 |
| RAGVFLPSGVAI | 0.663 ± 0.011 |
| RCRGTEGWLDSG | 0.63 ± 0.009 |
| HKHDAVIIGREC | 0.7024 ± 0.0042 |
| PVPLSALPPLPP | 0.746 ± 0.034 |
| PPPTPSGPHPAP | 0.672 ± 0.028 |
| SPPAPPLALPPP | 0.737 ± 0.057 |
| RVISIIREQEPV | 0.677 ± 0.034 |
| STVGRFPLSFHH | 0.726 ± 0.062 |
| GRQVTSTLTKLL | 0.617 ± 0.18 |
| RGGWRVTNKKNI | 0.645 ± 0.023 |
| GKKPNSGKNKKK | 0.694 ± 0.049 |
| PPPPPRLTPPRL | 0.722 ± 0.09 |
| SPGLLPLALFSL | 0.678 ± 0.14 |
| KKKKDKEIIHKE | 0.758 ± 0.12 |
| SVGIWSYGLCWF | 0.753 ± 0.055 |
| TCPDSVMDRLDS | 0.696 ± 0.12 |
| CRGGWKCGQEKG | 0.635 ± 0.014 |
| HLSHVLLGITFV | 0.603 ± 0.026 |

| Sequence | protein stability index |
| --- | --- |
| SFFSSSRVCLGF | 0.685 ± 0.11 |
| LVVGNQFIRRSD | 0.685 ± 0.023 |
| WLRRFIFGSVVN | 0.657 ± 0.015 |
| EGGRGGVLMRGV | 0.727 ± 0.013 |
| PAPSRRTVTDYW | 0.654 ± 0.015 |
| LLFSPTRVFLRY | 0.49 ± 0.053 |
| LFPHPGPHHPSV | 0.716 ± 0.016 |
| VYSRESMTGPVK | 0.7 ± 0.059 |
| TSYNLPAAPHPV | 0.679 ± 0.037 |
| STGAVGVSVCEG | 0.64 ± 0.022 |
| YLYSCVCGVLSN | 0.5472 ± 0.0049 |
| ALLLPFPPPPPP | 0.559 ± 0.03 |
| RSPKGKKRVGKW | 0.714 ± 0.039 |
| SFPPLRPSPPLL | 0.667 ± 0.019 |
| TIETDIYAIARV | 0.659 ± 0.041 |
| KVIGSAPRAEGR | 0.656 ± 0.065 |
| VLNSTSFLNKNL | 0.712 ± 0.059 |
| RKTRKKNRIRGI | 0.6857 ± 0.0054 |
| CSDRRVAGGRGG | 0.676 ± 0.073 |
| QGGGGGGVCGMV | 0.721 ± 0.011 |
| FSLPSLLPDPPS | 0.579 ± 0.011 |
| LLGHSTPAHVFL | 0.7129 ± 0.0031 |
| VISLPWRPKSWW | 0.739 ± 0.07 |
| HWYFARTSTVSC | 0.5505 ± 0.0015 |
| FNCIFHMLRFLR | 0.656 ± 0.074 |

| Sequence | protein stability index |
| --- | --- |
| THLPLPPPPPLL | 0.655 ± 0.022 |
| PAHSYPILASGH | 0.675 ± 0.034 |
| DGECVLGVFVGA | 0.706 ± 0.045 |
| VPLSALPPPPPA | 0.703 ± 0.027 |
| PISRRVIFCLQT | 0.62 ± 0.033 |
| HLTCVVGRDLGI | 0.606 ± 0.015 |
| FCGFLFRLSSVL | 0.626 ± 0.025 |
| CRLPLSTIRARP | 0.724 ± 0.047 |
| ARNMGLFVFNLR | 0.6783 ± 0.0043 |
| GGGGGEWCLVRL | 0.688 ± 0.027 |
| RLSRPPRIPRSQ | 0.654 ± 0.0087 |
| LCLCGLLGSGPT | 0.736 ± 0.042 |
| PPPFRTPPSRRP | 0.739 ± 0.057 |
| THSGRVRIVSFL | 0.654 ± 0.12 |
| GWVVGGGRLGVV | 0.723 ± 0.095 |
| IFYTHRSLSGNL | 0.659 ± 0.036 |
| VDVWCGRGVGRG | 0.707 ± 0.031 |
| ASSVLLIAQLQS | 0.619 ± 0.0054 |
| GEGVPVWNQCVE | 0.658 ± 0.0091 |
| SPPGPLPPRRPF | 0.725 ± 0.074 |
| NTRKNTTRKSQE | 0.637 ± 0.042 |
| SRSHSPLCPSFA | 0.604 ± 0.026 |
| GGGREGEIGGGG | 0.5705 ± 0.0013 |
| GGTHCRVCCVLF | 0.659 ± 0.02 |
| RTPPCLTPLEET | 0.713 ± 0.037 |

| Sequence | protein stability index |
| --- | --- |
| FPTFSPRPHPLS | 0.72 ± 0.0098 |
| SLWTDGYIFVLE | 0.732 ± 0.016 |
| CLLSWVLDCFLV | 0.548 ± 0.024 |
| SLPRYPRRASHS | 0.757 ± 0.068 |
| AIGPLTCFFAFL | 0.695 ± 0.079 |
| GPPPRCKYLRAS | 0.6348 ± 0.00079 |
| PNPPYFPSPGRS | 0.74 ± 0.044 |
| RSPSFLRSFPAL | 0.686 ± 0.016 |
| CQWGGWGVGVGG | 0.761 ± 0.061 |
| LLTGPYRCIPLV | 0.608 ± 0.039 |
| SPPPPPPSYPAH | 0.772 ± 0.051 |
| EWNKMTKEKNVI | 0.686 ± 0.017 |
| PPLPATHLPPPP | 0.802 ± 0.058 |
| VLSRPLSFPAGI | 0.61 ± 0.047 |
| PPLFTAAPRRWS | 0.752 ± 0.093 |
| KIKGVKEEIVKM | 0.686 ± 0.029 |
| GCLHVVGGVCLG | 0.69 ± 0.048 |
| IATDGARCACDP | 0.688 ± 0.022 |
| TISVNLYLPDLL | 0.677 ± 0.057 |
| LPPPPPLPSSPL | 0.685 ± 0.018 |
| SCLGSGVSWGVW | 0.731 ± 0.0053 |
